According to patent US20100158808A1, “Altered Activity of Toll-Like Receptors” (priority 2003, published 2010):

Tested on: mice
Assay: Experimental shock model (SIRS), D-galactosamine, i.p. injection
Assay type: in vivo
Conditions: for Death / SIRS in shock model: TLR4-mutant mice; for Death / SIRS in shock model / Death in shock model: i.p. with D-galactosamine; for Death in shock model: TLR4 wild-type mice
Protocol: Experimental shock model. Age- and sex-matched mice were injected with 5 mg of HS, 5 μg of LPS, 5 μg of Limulus anti-LPS factor, 5 mg of chondroitin sulfate, 200 U (−5 mg) heparin, 150 μg of CpG DNA, 1.5 U of elastase, or PBS mixed with 20 mg of D-galactosamine in a total volume of 500 μl of PBS by i.p. injection as previously described (Franks et al. (1991) Infect. Immun. 59:2609). Concentrations of HS and elastase were calculated by weight of lyophilized powder, and the doses used were near the LD50 based on dose-response experiments. In some experiments, the agonist was mixed with 5 or 20 μg of Limulus anti-LPS factor before injection. For some injections, enzymes were boiled at 100° C. for 60 minutes and vortexed vigorously, or preincubated with elastase inhibitor-1 for 4 hours at room temperature and then mixed with D-galactosamine before injection. Mice were monitored every hour for 48 hours and then euthanized.
During sepsis, Gram-negative bacteria shed LPS, which activates TLR4 on cells that then release inflammatory cytokines mediating systemic inflammation and death (Beutler (2000) Curr. Opin. Immunol. 12:20). To determine whether soluble HS can induce a model of systemic inflammatory response syndrome (SIRS) via activation of TLR4 in mice, HS was administered by i.p. injection to TLR4 wild type and mutant mice. This mouse model system has been used to study shock and a sepsis-like syndrome in response to microbial toxins (Galanos et al. (1979) Proc. Natl. Acad. Sci. USA 76:5939). […] Moreover, the observed responses were not due to contamination of HS by LPS, since the HS used was not contaminated with LPS.

Substance	Death / SIRS in shock model	Percent death after injection of elastase in SIRS shock model, TLR4 Mutant (%) (TLR4 mutant mice)	Percent death after injection of elastase in SIRS shock model, TLR4 Wild Type (%) (TLR4 wild type mice)	Death in shock model
elastase: pancreatic elastase (Calbiochem; type IV porcine pancreatic elastase, Sigma-Aldrich), protease that cleaves ECM proteins	no TLR4 mutant mice died	0	50	Fifty percent
heparan sulfate [HS]	no TLR4-mutant mice injected with HS died	–	–	eighty percent
lipopolysaccharide [LPS]	–	–	–	died
